Experimental data published in patent US20260217824A1 (Bristol-Myers Squibb, published 2026).
Numbering of substitutions follows the chain as printed. In names and notes the source's numbering stands. Where two headings read alike, the source gives them in different places. Values belong to the binder of their own block, whether it stands above or below them.

Key:
[1] = molecular target: FcγRI (CD64) (human, UniProt P12314 16-288); assay: SPR, response as % of Rmax (maximum FcγR capacity), Example 10; set-up and concentrations not given
[2] = molecular target: T1, FcγRIIA (CD32a-H131 variant) (human, UniProt P12318 36-218); assay: as above
T1 sequence (looked up): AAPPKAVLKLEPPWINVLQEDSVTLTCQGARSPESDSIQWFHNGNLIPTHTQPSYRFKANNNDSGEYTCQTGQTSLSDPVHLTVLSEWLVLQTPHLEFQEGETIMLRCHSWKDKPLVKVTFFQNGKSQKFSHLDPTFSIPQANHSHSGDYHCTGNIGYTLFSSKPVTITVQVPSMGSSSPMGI

[3] = molecular target: T2, FcγRIIA (CD32a-R131 variant) (human, UniProt P12318 36-218); assay: as above
T2 sequence (looked up): T1 sequence (looked up) with H132R

[4] = molecular target: T3, FcγRIIB (CD32b) (human, UniProt P31994 43-217); assay: SPR sensorgrams, Example 10; response axis without unit, no time axis; set-up and concentrations not given
T3 sequence (looked up): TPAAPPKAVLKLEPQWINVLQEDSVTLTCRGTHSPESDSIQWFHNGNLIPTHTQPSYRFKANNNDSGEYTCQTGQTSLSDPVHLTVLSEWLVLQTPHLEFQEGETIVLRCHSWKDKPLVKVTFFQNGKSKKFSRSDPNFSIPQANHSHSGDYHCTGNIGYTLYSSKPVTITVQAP

[5] = molecular target: T4, FcγRIIIA (CD16a-V158 variant) (human, UniProt P08637 17-208); assay: as above
[6] = molecular target: T5, FcγRIIIB (CD16b-NA2 variant) (human, UniProt O75015 17-200); assay: as above
[7] = molecular target: T5, FcγRIIIB (CD16b-NA2 variant); assay: SPR, response as % of Rmax (maximum FcγR capacity), Example 10; set-up and concentrations not given
[8] = molecular target: T1, FcγRIIA (CD32a-H131 variant); assay: SPR sensorgrams, Example 10; response axis without unit, no time axis; set-up and concentrations not given
[9] = molecular target: T2, FcγRIIA (CD32a-R131 variant); assay: as above
[10] = molecular target: T3, FcγRIIB (CD32b); assay: as above; remark: listed apart in the source
[11] = molecular target: T4, FcγRIIIA (CD16a-V158 variant); assay: as above; remark: listed apart in the source
[12] = molecular target: T6, CynoTREM1 (as named in Table 3) (cynomolgus); assay: SPR (Biacore)
T6 construct: also called cynomolgus TREM-1
T6 chain: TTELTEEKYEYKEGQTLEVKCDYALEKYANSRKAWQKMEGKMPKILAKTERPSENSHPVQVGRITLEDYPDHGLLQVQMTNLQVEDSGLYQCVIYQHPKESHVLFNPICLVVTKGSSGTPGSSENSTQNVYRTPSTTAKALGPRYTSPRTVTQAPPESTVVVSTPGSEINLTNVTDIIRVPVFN

[13] = molecular target: T7, cynomolgus TREM-1 on cells (cynomolgus); assay: cell-based or functional assay
T7 chain: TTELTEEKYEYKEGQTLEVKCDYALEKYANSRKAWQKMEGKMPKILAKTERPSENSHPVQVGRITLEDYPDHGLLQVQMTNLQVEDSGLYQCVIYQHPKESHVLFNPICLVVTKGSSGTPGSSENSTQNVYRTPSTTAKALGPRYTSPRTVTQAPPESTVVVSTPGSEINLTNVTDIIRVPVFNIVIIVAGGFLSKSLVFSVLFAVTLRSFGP

[14] = molecular target: T7, cynomolgus TREM-1 on cells; assay: in vivo receptor occupancy against serum concentration, Emax model, cynomolgus monkeys
Protocol: Upon antibody administration, pharmacokinetics, anti-drug antibodies (ADA), TREM-1 receptor occupancy (RO), and ex vivo pharmacodynamics responses were examined at pre-determined time points.
(§1) A direct-effect inhibitory model was used to describe the PD response. […] The observed (open circle) and model-predicted endpoints (solid line) are provided in FIGS. 16A (0.1 mg/kg subcutaneous dosing) and 16B (10 mg/kg subcutaneous dosing).

[15] = molecular target: T7, cynomolgus TREM-1 on cells; assay: estimate of the 2-compartment PK model with TMDD fitted to cynomolgus PK/RO/PD data (mAb affinity for TREM-1); cyno-model estimate (CV 12%) of the TMDD PK/PD fit, not a direct binding assay
Protocol: as §1

Chain of FcγRI (CD64) (P12314 16-288 limits assumed): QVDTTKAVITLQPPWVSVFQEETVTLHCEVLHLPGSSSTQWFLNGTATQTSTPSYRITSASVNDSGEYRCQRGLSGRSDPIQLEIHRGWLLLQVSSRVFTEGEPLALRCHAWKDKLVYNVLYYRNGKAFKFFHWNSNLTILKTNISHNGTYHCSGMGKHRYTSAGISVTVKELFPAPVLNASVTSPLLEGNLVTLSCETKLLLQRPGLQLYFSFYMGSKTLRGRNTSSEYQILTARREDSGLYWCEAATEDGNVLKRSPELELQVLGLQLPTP
T5 sequence (O75015 other isoform, or with tags, fused parts or gaps mutant limits assumed): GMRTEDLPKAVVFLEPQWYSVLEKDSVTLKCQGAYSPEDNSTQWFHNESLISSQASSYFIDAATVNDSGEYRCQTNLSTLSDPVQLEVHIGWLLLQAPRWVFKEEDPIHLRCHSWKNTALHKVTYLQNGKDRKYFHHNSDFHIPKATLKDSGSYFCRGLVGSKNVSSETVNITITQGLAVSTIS
T4 sequence (P08637 other isoform, or with tags, fused parts or gaps mutant limits assumed): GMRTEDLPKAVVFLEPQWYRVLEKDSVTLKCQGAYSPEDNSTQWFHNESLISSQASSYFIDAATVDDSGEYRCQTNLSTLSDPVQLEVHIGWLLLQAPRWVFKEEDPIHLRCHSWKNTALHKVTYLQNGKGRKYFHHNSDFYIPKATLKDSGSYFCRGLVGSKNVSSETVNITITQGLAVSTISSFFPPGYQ

binding result [1]: binds
binding result [3]: binds
B2: mAb 0318-IgG1.1f (antibody)
heavy: EVQLVESGGGLVQPGGSLKLSCAASGFTFSTYAMHWVRQASGKGLEWVGRIRTKSSNYATYYAASVKGRFTISRDDSKNTAYLQMNSLKTEDTAVYYCTRDMGIRRQFAYWGQGTLVTVSSASTKGPSVFPLAPSSKSTSGGTAALGCLVKDYFPEPVTVSWNSGALTSGVHTFPAVLQSSGLYSLSSVVTVPSSSLGTQTYICNVNHKPSNTKVDKRVEPKSCDKTHTCPPCPAPEAEGAPSVFLFPPKPKDTLMISRTPEVTCVVVDVSHEDPEVKFNWYVDGVEVHNAKTKPREEQYNSTYRVVSVLTVLHQDWLNGKEYKCKVSNKALPSSIEKTISKAKGQPREPQVYTLPPSREEMTKNQVSLTCLVKGFYPSDIAVEWESNGQPENNYKTTPPVLDSDGSFFLYSKLTVDKSRWQQGNVFSCSVMHEALHNHYTQKSLSLSPG
light: DIVLTQSPDSLAVSLGERATINCRASQSVDTFDYSFLHWYQQKPGQPPKLLIYRASNLESGVPDRFSGSGSGTDFTLTISSLQAEDVAVYYCQQSNQDPYTFGQGTKLEIKRTVAAPSVFIFPPSDEQLKSGTASVVCLLNNFYPREAKVQWKVDNALQSGNSQESVTEQDSKDSTYSLSSTLTLSKADYEKHKVYACEVTHQGLSSPVTKSFNRGEC
notes: IgG1 constant region with L234A, L235E, G237A, A330S, P331S (EU)

binding result [1]: binds
binding result [7]: no binding
binding result [8]: no binding
binding result [9]: no binding
binding result [10]: no binding
binding result [11]: no binding
B3: mAb 0318-IgG4-Aba (antibody)
heavy: not shown
light: B2 light
notes: IgG4 CH1 with IgG1 CH2 and CH3, C226S, C229S, P238S (EU); also called IgG4-Aba mod; FcAba-4

The next lines start with the binder.

B1: mAb 0318-IgG1-Aba (antibody)
heavy: not shown
light: B2 light
notes: IgG1 constant region with K214R, C226S, C229S, P238S (EU); also called IgG1-Aba mod; FcAba-1
binding result [1]: binds
binding result [2]: no binding
binding result [3]: no binding
binding result [4]: no binding
binding result [5]: no binding
binding result [6]: no binding

B4: mAb 0318-IgG1.3f (antibody)
heavy: EVQLVESGGGLVQPGGSLKLSCAASGFTFSTYAMHWVRQASGKGLEWVGRIRTKSSNYATYYAASVKGRFTISRDDSKNTAYLQMNSLKTEDTAVYYCTRDMGIRRQFAYWGQGTLVTVSSASTKGPSVFPLAPSSKSTSGGTAALGCLVKDYFPEPVTVSWNSGALTSGVHTFPAVLQSSGLYSLSSVVTVPSSSLGTQTYICNVNHKPSNTKVDKRVEPKSCDKTHTCPPCPAPEAEGAPSVFLFPPKPKDTLMISRTPEVTCVVVDVSHEDPEVKFNWYVDGVEVHNAKTKPREEQYNSTYRVVSVLTVLHQDWLNGKEYKCKVSNKALPAPIEKTISKAKGQPREPQVYTLPPSREEMTKNQVSLTCLVKGFYPSDIAVEWESNGQPENNYKTTPPVLDSDGSFFLYSKLTVDKSRWQQGNVFSCSVMHEALHNHYTQKSLSLSPGK
light: B2 light
notes: IgG1 constant region with L234A, L235E, G237A (EU)
Kd [12]: 3.4 nM
IC50 (nM), estimate of the cynomolgus PK/PD model [13]: 1.9 nM
EC50 [14]: 1.6 nM
binding result [1]: binds
binding result [3]: binds
Kd [15]: 0.64 nM
